From US20260201008A1, “SECRETIN-DERIVED GLP1R SELECTIVE AGONISTS” (GUBRA A/S, priority 2023, published 2026)
Numbered stars: 1 amine (or outer) side, 2 acyl side, 3 side chain; on linkers, the order of the positions; unused ones are H or OH. Square brackets hold non-standard residues; d marks the D form. Side chains are listed from the residue outwards. Ends that are not written are not given here. * marks the point of attachment. C20 diacid = O=C(O)CCCCCCCCCCCCCCCCCCC(=O)*; γGlu = O=C(O)[C@H](CCC(=O)[*:2])N[*:1]; AEEA = NCCOCCOCC(=O)O; Aib = CC(C)(N)C(=O)O

Experiments:
[1] = target: human secretin receptor (hSCTR) (human, UniProt P47872 23-440); assay: cell-based or functional assay
human secretin receptor (hSCTR), sequence (P47872 23-440): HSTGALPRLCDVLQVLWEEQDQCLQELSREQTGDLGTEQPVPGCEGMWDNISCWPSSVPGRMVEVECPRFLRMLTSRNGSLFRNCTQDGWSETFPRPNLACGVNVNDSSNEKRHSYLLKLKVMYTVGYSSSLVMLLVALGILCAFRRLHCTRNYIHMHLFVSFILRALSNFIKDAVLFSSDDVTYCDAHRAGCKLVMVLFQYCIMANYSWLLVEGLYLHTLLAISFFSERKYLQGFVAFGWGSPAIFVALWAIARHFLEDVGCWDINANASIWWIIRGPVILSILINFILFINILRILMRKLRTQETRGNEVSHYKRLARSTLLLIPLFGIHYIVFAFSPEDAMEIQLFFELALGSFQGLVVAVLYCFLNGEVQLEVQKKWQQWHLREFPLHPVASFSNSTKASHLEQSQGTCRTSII

[2] = target: human GLP-1 receptor (hGLP1R) (human, UniProt P43220 24-463); assay: cell-based or functional assay

Row | Binder | pEC50 hSCTR [1] | pEC50 hGLPR1 [2]
1 | H[Aib]EGTFTSD[Aib]SVLLEGAALQRFIQWLV-NH2 (N-terminus assumed; SMILES CC[C@H](C)[C@H](NC(=O)[C@H](Cc1ccccc1)NC(=O)[C@H](CCCNC(=N)N)NC(=O)[C@H](CCC(N)=O)NC(=O)[C@H](CC(C)C)NC(=O)[C@H](C)NC(=O)[C@H](C)NC(=O)CNC(=O)[C@H](CCC(=O)O)NC(=O)[C@H](CC(C)C)NC(=O)[C@H](CC(C)C)NC(=O)[C@@H](NC(=O)[C@H](CO)NC(=O)C(C)(C)NC(=O)[C@H](CC(=O)O)NC(=O)[C@H](CO)NC(=O)[C@@H](NC(=O)[C@H](Cc1ccccc1)NC(=O)[C@@H](NC(=O)CNC(=O)[C@H](CCC(=O)O)NC(=O)C(C)(C)NC(=O)[C@@H](N)Cc1c[nH]cn1)[C@@H](C)O)[C@@H](C)O)C(C)C)C(=O)N[C@@H](CCC(N)=O)C(=O)N[C@@H](Cc1c[nH]c2ccccc12)C(=O)N[C@@H](CC(C)C)C(=O)N[C@H](C(N)=O)C(C)C) [SEQ ID NO: 110] | 5.7 -log M | 9.7 -log M
2 | H[Aib]EGTFTSD[Aib]SFLLEGAALQRFIQWLV-NH2 (N-terminus assumed; SMILES CC[C@H](C)[C@H](NC(=O)[C@H](Cc1ccccc1)NC(=O)[C@H](CCCNC(=N)N)NC(=O)[C@H](CCC(N)=O)NC(=O)[C@H](CC(C)C)NC(=O)[C@H](C)NC(=O)[C@H](C)NC(=O)CNC(=O)[C@H](CCC(=O)O)NC(=O)[C@H](CC(C)C)NC(=O)[C@H](CC(C)C)NC(=O)[C@H](Cc1ccccc1)NC(=O)[C@H](CO)NC(=O)C(C)(C)NC(=O)[C@H](CC(=O)O)NC(=O)[C@H](CO)NC(=O)[C@@H](NC(=O)[C@H](Cc1ccccc1)NC(=O)[C@@H](NC(=O)CNC(=O)[C@H](CCC(=O)O)NC(=O)C(C)(C)NC(=O)[C@@H](N)Cc1c[nH]cn1)[C@@H](C)O)[C@@H](C)O)C(=O)N[C@@H](CCC(N)=O)C(=O)N[C@@H](Cc1c[nH]c2ccccc12)C(=O)N[C@@H](CC(C)C)C(=O)N[C@H](C(N)=O)C(C)C) [SEQ ID NO: 111] | 5.7 -log M | 10.5 -log M
3 | H[Aib]EGTFTSDIS[Aib]LLEGAALQRFIQWLV-NH2 (N-terminus assumed; SMILES CC[C@H](C)[C@H](NC(=O)[C@H](Cc1ccccc1)NC(=O)[C@H](CCCNC(=N)N)NC(=O)[C@H](CCC(N)=O)NC(=O)[C@H](CC(C)C)NC(=O)[C@H](C)NC(=O)[C@H](C)NC(=O)CNC(=O)[C@H](CCC(=O)O)NC(=O)[C@H](CC(C)C)NC(=O)[C@H](CC(C)C)NC(=O)C(C)(C)NC(=O)[C@H](CO)NC(=O)[C@@H](NC(=O)[C@H](CC(=O)O)NC(=O)[C@H](CO)NC(=O)[C@@H](NC(=O)[C@H](Cc1ccccc1)NC(=O)[C@@H](NC(=O)CNC(=O)[C@H](CCC(=O)O)NC(=O)C(C)(C)NC(=O)[C@@H](N)Cc1c[nH]cn1)[C@@H](C)O)[C@@H](C)O)[C@@H](C)CC)C(=O)N[C@@H](CCC(N)=O)C(=O)N[C@@H](Cc1c[nH]c2ccccc12)C(=O)N[C@@H](CC(C)C)C(=O)N[C@H](C(N)=O)C(C)C) [SEQ ID NO: 113] | 7.1 -log M | 10.3 -log M
4 | H[Aib]EGTFTSD[Aib]SWLLEGAALQRFIQWLV-NH2 (N-terminus assumed; SMILES CC[C@H](C)[C@H](NC(=O)[C@H](Cc1ccccc1)NC(=O)[C@H](CCCNC(=N)N)NC(=O)[C@H](CCC(N)=O)NC(=O)[C@H](CC(C)C)NC(=O)[C@H](C)NC(=O)[C@H](C)NC(=O)CNC(=O)[C@H](CCC(=O)O)NC(=O)[C@H](CC(C)C)NC(=O)[C@H](CC(C)C)NC(=O)[C@H](Cc1c[nH]c2ccccc12)NC(=O)[C@H](CO)NC(=O)C(C)(C)NC(=O)[C@H](CC(=O)O)NC(=O)[C@H](CO)NC(=O)[C@@H](NC(=O)[C@H](Cc1ccccc1)NC(=O)[C@@H](NC(=O)CNC(=O)[C@H](CCC(=O)O)NC(=O)C(C)(C)NC(=O)[C@@H](N)Cc1c[nH]cn1)[C@@H](C)O)[C@@H](C)O)C(=O)N[C@@H](CCC(N)=O)C(=O)N[C@@H](Cc1c[nH]c2ccccc12)C(=O)N[C@@H](CC(C)C)C(=O)N[C@H](C(N)=O)C(C)C) [SEQ ID NO: 108] | 5.9 -log M | 10.1 -log M
5 | H[Aib]EGTFTSDISYLLEGAALQRFIQWLV-NH2 (N-terminus assumed; SMILES CC[C@H](C)[C@H](NC(=O)[C@H](Cc1ccccc1)NC(=O)[C@H](CCCNC(=N)N)NC(=O)[C@H](CCC(N)=O)NC(=O)[C@H](CC(C)C)NC(=O)[C@H](C)NC(=O)[C@H](C)NC(=O)CNC(=O)[C@H](CCC(=O)O)NC(=O)[C@H](CC(C)C)NC(=O)[C@H](CC(C)C)NC(=O)[C@H](Cc1ccc(O)cc1)NC(=O)[C@H](CO)NC(=O)[C@@H](NC(=O)[C@H](CC(=O)O)NC(=O)[C@H](CO)NC(=O)[C@@H](NC(=O)[C@H](Cc1ccccc1)NC(=O)[C@@H](NC(=O)CNC(=O)[C@H](CCC(=O)O)NC(=O)C(C)(C)NC(=O)[C@@H](N)Cc1c[nH]cn1)[C@@H](C)O)[C@@H](C)O)[C@@H](C)CC)C(=O)N[C@@H](CCC(N)=O)C(=O)N[C@@H](Cc1c[nH]c2ccccc12)C(=O)N[C@@H](CC(C)C)C(=O)N[C@H](C(N)=O)C(C)C) [SEQ ID NO: 112] | 5.6 -log M | 10.8 -log M
6 | H[Aib]EGTFTSDISYLK([AEEA-AEEA-γGlu-C20 diacid])EEA[Aib]LQRFLEHLV-NH2 (also: K14 lipid also given as C18DA[γE][OEG][OEG]-) [SEQ ID NO: 114] | 7.4 -log M | 11 -log M
7 | H[Aib]EGTFTSD[Aib]SELLEGAALQRFIQWLV-NH2 (N-terminus assumed; SMILES CC[C@H](C)[C@H](NC(=O)[C@H](Cc1ccccc1)NC(=O)[C@H](CCCNC(=N)N)NC(=O)[C@H](CCC(N)=O)NC(=O)[C@H](CC(C)C)NC(=O)[C@H](C)NC(=O)[C@H](C)NC(=O)CNC(=O)[C@H](CCC(=O)O)NC(=O)[C@H](CC(C)C)NC(=O)[C@H](CC(C)C)NC(=O)[C@H](CCC(=O)O)NC(=O)[C@H](CO)NC(=O)C(C)(C)NC(=O)[C@H](CC(=O)O)NC(=O)[C@H](CO)NC(=O)[C@@H](NC(=O)[C@H](Cc1ccccc1)NC(=O)[C@@H](NC(=O)CNC(=O)[C@H](CCC(=O)O)NC(=O)C(C)(C)NC(=O)[C@@H](N)Cc1c[nH]cn1)[C@@H](C)O)[C@@H](C)O)C(=O)N[C@@H](CCC(N)=O)C(=O)N[C@@H](Cc1c[nH]c2ccccc12)C(=O)N[C@@H](CC(C)C)C(=O)N[C@H](C(N)=O)C(C)C) [SEQ ID NO: 109] | 5.5 -log M | 10.1 -log M
